From patent publication US20210024625A1 (published 2021)

B1: H1H29100P (antibody, V domains shown)
VH: QLQLQESGPGLVKPSETLSLTCTVSGGSISSSSYYWGWIRQPPGKGLEWIGIIYYSGSTYYNPSLKSRVTISVDTSKNQFSLKLSSVTAADTAVYYCARQDREALFDYWGQGTLVTVSS
VL: EIVLTQSPDFQSVTPKEKVTITCRASQRIGSSLHWYQQKPDQSPKLLIKYASQSFSGVPSRFSGSGSGTDFTLTINSLEAEDAATYYCHQSSTLPTFGQGTRLEIKR
B2: H1H29089P (antibody, V domains shown)
VH: EVQLVQSGAEVKKPGESLKISCKGSGYSFTSYWIVWVRQMPGKGLEWMGIIYPGDSDTRYSPSFQGQVTISADKSISTAYLQWSSLKASDTAMYYCARQDITGTTGFDYWGQGTLVTVSS
VL: DIQMTQSPSSLSASVGDRVTITCRASQSIRNYLNWYQQKPGKAPKLLIYAASSLQSGVPSRFSGSGSGTDFTLTISSLQPEDFATYFCQQSYSTPFTFGPGTKVDIKR

How the values were obtained:
Assay in all cases: cell-based or functional assay
[1] = target: T1, PfRH5 from Plasmodium falciparum strain Dd2 (Plasmodium falciparum)
[2] = target: T2, PfRH5 from Plasmodium falciparum strain 7G8 (Plasmodium falciparum)
[3] = target: T3, PfRH5 from Plasmodium falciparum strain 3D7 (Plasmodium falciparum, UniProt Q8IFM5 25-526)
T3 sequence: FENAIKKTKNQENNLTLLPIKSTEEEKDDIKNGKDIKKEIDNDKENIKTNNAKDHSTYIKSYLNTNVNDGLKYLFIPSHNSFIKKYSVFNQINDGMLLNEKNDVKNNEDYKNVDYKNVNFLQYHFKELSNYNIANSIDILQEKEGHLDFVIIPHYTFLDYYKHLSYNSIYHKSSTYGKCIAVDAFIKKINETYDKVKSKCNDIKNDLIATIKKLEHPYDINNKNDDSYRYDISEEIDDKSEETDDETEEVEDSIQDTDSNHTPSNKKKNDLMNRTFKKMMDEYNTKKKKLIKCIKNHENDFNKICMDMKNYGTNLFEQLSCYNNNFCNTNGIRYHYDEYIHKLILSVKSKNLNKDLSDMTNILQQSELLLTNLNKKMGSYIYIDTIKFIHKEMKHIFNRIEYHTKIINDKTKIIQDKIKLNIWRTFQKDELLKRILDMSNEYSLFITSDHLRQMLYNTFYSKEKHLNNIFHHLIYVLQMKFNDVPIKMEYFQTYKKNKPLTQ

[4] = target: PfRH5 from Plasmodium falciparum strain D10 (Plasmodium falciparum)
[5] = target: T1, PfRH5 from Plasmodium falciparum strain …; remark: listed apart in the source
[6] = target: T2, PfRH5 from Plasmodium falciparum strain …; remark: listed apart in the source
[7] = target: PfRH5 from Plasmodium falciparum strain W2-mef (Plasmodium falciparum)
[8] = target: PfRH5 from Plasmodium falciparum strain HB3 (Plasmodium falciparum)
[9] = target: T4, PfRH5 from Plasmodium falciparum strain FCR-1/FVO (Plasmodium falciparum)
[10] = target: PfRH5 from Plasmodium falciparum strain Cam3.II (Plasmodium falciparum)
[11] = target: PfRH5 from Plasmodium falciparum strain RF7 (Plasmodium falciparum)
[12] = target: T4, PfRH5 from Plasmodium falciparum strain …; remark: listed apart in the source
[13] = target: T3, PfRH5 from Plasmodium falciparum strain …; remark: listed apart in the source

Binder | Maximum growth inhibition (%) [1] | Max growth inhibition (%), Chloroquine Phosphate N/A [2] | Max growth inhibition (%), Chloroquine Phosphate N/A [3] | Max growth inhibition (%) [4] | Max growth inhibition (%) [5] | Max growth inhibition (%) [6] | Max growth inhibition (%) [7] | Max growth inhibition (%) [8] | Max growth inhibition (%) [9] | Max growth inhibition (%) [10] | Max growth inhibition (%) [11] | Percent Maximum Growth Inhibition, mAb (6.67 µM) + AHIS (10%) [12] | Percent Maximum Growth Inhibition, mAb (6.67 µM) + ANS (10%) [12] | Percent Maximum Growth Inhibition, mAb (6.67 µM) + HHIS (10%) [12] | Percent Maximum Growth Inhibition, mAb (6.67 µM) + HNS (10%) [12] | Percent Maximum Growth Inhibition, mAb (6.67 µM) + No serum [12] | Max growth inhibition (%) [13]
B1 | 65.7% | 48.9% | 58% | 81.7% | 64.6% | 66.4% | 67.3% | 62.6% | 66.9% | 52.4% | 17% | 82.5% | 73.2% | 81.9% | 82.4% | 83.9% | –
B2 | – | 51.1% | 61.1% | 82.3% | 71.3% | 70.1% | 66.4% | 59.1% | 66% | 56.2% | 28.9% | 84.3% | 75.7% | 85.2% | 85% | 85.3% | 67.6%
